Measurements from IntAct's records for PubMed 15385968.

B1: DNA repair protein XRCC4 (Homo sapiens), Q13426 (parent)
chain: MERKISRIHLVSEPSITHFLQVSWEKTLESGFVITLTDGHSAWTGTVSESEISQEADDMAMEKGKYVGELRKALLSGAGPADVYTFNFSKESCYFFFEKNLKDVSFRLGSFNLEKVENPAEVIRELICYCLDTIAENQAKNEHLQKENERLLRDWNDVQGRFEKCVSAKEALETDLYKRFILVLNEKKTKIRSLHNKLLNAAQEREKDIKQEGETAICSEMTADRDPVYDESTDEESENQTDLSGLASAAVSKDDSIISSLDVTDIAPSRKRRQRMQRNLGTEPKMAPQENQLQEKENSRPDSSLPETSKKEHISAENMSLETLRNSSPEDLFDEI

Variants of: B1
Settings: with pnkp_human PNKP

| Variant | effect of a mutation on the interaction |
| --- | --- |
| T233A | disrupting interaction |
